The test system of one experiment is thymocytes. Description: Induction of apoptosis in thymocytes (annexin V). The class given is cell-based, mouse. As to conditions: 1 μM; 10 hours at 37° C.; thymocytes from C57BL/6 mice; data not shown.
The target in experiment [1] is T1, mouse CD11b (integrin alphaM, alpha subunit of Mac-1) (mouse, UniProt P05555 17-1153).
T1 construct: whole, on cells; Endogenous protein in macrophage lysates; It forms Mac-1 together with CD18; also called Mac-1 (CD11b); CR3 alpha subunit
Description: anti-CD11b immunoprecipitation from BMDM lysates, mass spectrometry. On the procedure: Authenticated cells. (FIG. 9D) Lysates from the mouse macrophage cell line RAW264.7 expressing GFP alone or in combination with a FLAG-tagged version of mouse SLAMF7 (FLAG-SLAMF7) were immunoprecipitated with anti-FLAG. They were then probed by immunoblotting with anti-CD11b (Mac-1) or anti-SLAMF7. Total cell lysates were analyzed in parallel. (FIG. 9E) Co-localization of SLAMF7 and CD11b in RAW264.7 cells expressing GFP alone or with FLAG-SLAMF7 assessed by immunofluorescence. Semi-confluent RAW264.7 cells expressing GFP alone (bottom) or in combination with FLAG-SLAMF7 (top) were fixed and stained with antibodies against FLAG, CD11b (Mac-1) or CD18, as detailed in Example 1. Staining was detected by confocal microscopy. Scale bar, 5 μm. […] (FIG. 9F) As in FIG. 9E, except that only RAW264.7 cells expressing FLAG-SLAMF7 were analyzed and that antibodies coupled to different fluorophores were used. […] (FIGS. 9G-A and 9G-B) RAW264.7 derivatives expressing GFP alone or in combination with FLAG-SLAMF7 were analyzed by flow cytometry, using antibodies directed against FLAG and SLAMF7 (dotted lines). […]
Immunoprecipitations, mass spectrometry, immunoblots. […] In brief, immunoprecipitated proteins were digested with trypsin (Promega, Madison, Wis.) and analyzed by LC-MS/MS on a LTQ Orbitrap™ Velos (ThermoFisher Scientific, Bremen, Germany) equipped with a Proxeon Nanoelectrospray™ ion source. […]

T1 sequence (P05555 17-1153): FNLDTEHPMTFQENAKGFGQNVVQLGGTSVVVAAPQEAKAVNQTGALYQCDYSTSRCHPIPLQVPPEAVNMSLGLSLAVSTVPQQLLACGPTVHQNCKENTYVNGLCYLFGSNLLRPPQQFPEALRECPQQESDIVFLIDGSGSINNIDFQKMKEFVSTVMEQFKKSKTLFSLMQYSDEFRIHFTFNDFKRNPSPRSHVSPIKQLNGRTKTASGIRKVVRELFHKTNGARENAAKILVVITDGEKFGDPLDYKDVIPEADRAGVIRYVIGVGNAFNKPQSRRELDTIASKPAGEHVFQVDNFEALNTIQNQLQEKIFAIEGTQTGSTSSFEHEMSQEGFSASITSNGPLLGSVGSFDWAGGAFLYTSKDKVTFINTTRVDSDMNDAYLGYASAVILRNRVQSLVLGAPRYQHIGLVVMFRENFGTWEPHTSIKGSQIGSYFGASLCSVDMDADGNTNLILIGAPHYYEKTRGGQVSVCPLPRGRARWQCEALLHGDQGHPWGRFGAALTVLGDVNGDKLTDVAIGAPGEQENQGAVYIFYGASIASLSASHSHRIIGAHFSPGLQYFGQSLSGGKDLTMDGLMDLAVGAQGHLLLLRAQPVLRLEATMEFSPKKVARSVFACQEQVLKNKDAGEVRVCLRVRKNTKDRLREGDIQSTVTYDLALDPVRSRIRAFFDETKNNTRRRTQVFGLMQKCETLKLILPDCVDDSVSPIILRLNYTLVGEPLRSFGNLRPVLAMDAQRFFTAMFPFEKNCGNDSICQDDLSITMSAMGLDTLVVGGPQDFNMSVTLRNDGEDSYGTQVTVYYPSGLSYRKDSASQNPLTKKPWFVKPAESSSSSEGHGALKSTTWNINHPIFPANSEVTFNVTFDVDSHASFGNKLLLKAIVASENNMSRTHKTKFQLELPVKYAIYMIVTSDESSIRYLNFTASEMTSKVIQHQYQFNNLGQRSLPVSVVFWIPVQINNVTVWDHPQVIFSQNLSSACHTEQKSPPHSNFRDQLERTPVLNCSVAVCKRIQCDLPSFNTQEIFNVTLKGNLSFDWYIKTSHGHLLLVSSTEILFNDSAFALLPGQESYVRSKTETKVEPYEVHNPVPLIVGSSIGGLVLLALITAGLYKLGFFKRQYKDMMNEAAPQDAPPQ

Consider `C[C@@H]1C[C@H]2[C@@H]3CCC4=CC(=O)C=C[C@]4(C)[C@@]3(F)[C@@H](O)C[C@]2(C)[C@@]1(O)C(=O)CO` [dexamethasone], for which the “cells becoming apoptotic (annexin V-positive)” value with thymocytes is “about 70%”.

B1: mouse CD64 (Fc receptor) (receptor, UniProt P26151 25-404, looked up)
chain: EVVNATKAVITLQPPWVSIFQKENVTLWCEGPHLPGDSSTQWFINGTAVQISTPSYSIPEASFQDSGEYRCQIGSSMPSDPVQLQIHNDWLLLQASRRVLTEGEPLALRCHGWKNKLVYNVVFYRNGKSFQFSSDSEVAILKTNLSHSGIYHCSGTGRHRYTSAGVSITVKELFTTPVLRASVSSPFPEGSLVTLNCETNLLLQRPGLQLHFSFYVGSKILEYRNTSSEYHIARAEREDAGFYWCEVATEDSSVLKRSPELELQVLGPQSSAPVWFHILFYLSVGIMFSLNTVLYVKIHRLQREKKYNLEVPLVSEQGKKANSFQQVRSDGVYEEVTATASQTTPKEAPDGPRSSVGDCGPEQPEPLPPSDSTGAQTSQS
notes: whole, on cells; Endogenous protein in macrophage lysates
For B1, the binding result in experiment [1] is “no binding”.

B2: mouse CD16 (Fc receptor) (receptor, UniProt P08508 31-261, looked up)
chain: ALPKAVVKLDPPWIQVLKEDMVTLMCEGTHNPGNSSTQWFHNGRSIRSQVQASYTFKATVNDSGEYRCQMEQTRLSDPVDLGVISDWLLLQTPQRVFLEGETITLRCHSWRNKLLNRISFFHNEKSVRYHHYKSNFSIPKANHSHSGDYYCKGSLGSTQHQSKPVTITVQDPATTSSISLVWYHTAFSLVMCLLFAVDTGLYFYVRRNLQTPREYWRKSLSIRKHQAPQDK
notes: as for B1
Take B2: the binding result in experiment [1] was “no binding”.

Source of the values: patent US20210155691A1, “METHODS OF PREVENTING OR TREATING NON-HEMATOPOIETIC SLAMF7 POSITIVE AND SLAMF7 NEGATIVE CANCERS” (ADAERATA, LIMITED PARTNERSHIP, priority 2018, published 2021).
